In patent US20230250139A1 (MIT, published 2023):

Target: the molecule itself
Assay: self-assembly in cultured mouse hippocampal neurons; anti-HA immunofluorescence, confocal

Protein | binding result
UBC-1POK(E239Y)-Linker25-HA-gsg-Top7 (other) MIDYTAAGFTLLQGAHLYAPEDRGICDVLVANGKIIAVASNIPSDIVPNCTVVDLSGQILCPGFIDQHVHLIGGGGEAGPTTRTPEVALSRLTEAGVTSVVGLLGTDSISRHPESLLAKTRALNEEGISAWMLTGAYHVPSRTITGSVEKDVAIIDRVIGVKCAISDHRSAAPDVYHLANMAAESRVGGLLGGKPGVTVFHMGDSKKALQPIYDLLENCDVPISKLLPTHVNRNVPLFYQALEFARKGGTIDITSSIDEPVAPAEGIARAVQAGIPLARVTLSSDGNGSQPFFDDEGNLTHIGVAGFETLLETVQVLVKDYDFSISDALRPLTSSVAGFLNLTGKGEILPGNDADLLVMTPELRIEQVYARGKLMVKDGKACVKGTFETAGGSGGTGGSGGTGGSGGTGGSGGTGYPYDVPDYAGSGDIQVQVNIDDNGKNFDYTYTVTTESELQKVLNELKDYIKKQGAKRVRISITARTKKEAEKFAAILIKVFAELGYNDINVTWDGDTVTVEGQLE | binds
UBC-1POK(E239Y)-Linker12-gg-HA (other) MIDYTAAGFTLLQGAHLYAPEDRGICDVLVANGKIIAVASNIPSDIVPNCTVVDLSGQILCPGFIDQHVHLIGGGGEAGPTTRTPEVALSRLTEAGVTSVVGLLGTDSISRHPESLLAKTRALNEEGISAWMLTGAYHVPSRTITGSVEKDVAIIDRVIGVKCAISDHRSAAPDVYHLANMAAESRVGGLLGGKPGVTVFHMGDSKKALQPIYDLLENCDVPISKLLPTHVNRNVPLFYQALEFARKGGTIDITSSIDEPVAPAEGIARAVQAGIPLARVTLSSDGNGSQPFFDDEGNLTHIGVAGFETLLETVQVLVKDYDFSISDALRPLTSSVAGFLNLTGKGEILPGNDADLLVMTPELRIEQVYARGKLMVKDGKACVKGTFETAGGSGGTGGSGGTGGYPYDVPDYA | binds
CMV-DHF40-Linker8-HA (other) MSSEKEELRERLVKICVELAKLKGDDTLKAAEAAEEAFRLVVLAAMLAGIDSSEVLELAIRLIKTCVVLAAMEGYDISEACRAAAEAFTRVAMAALRAGITSSLVLKAAIELIKECVLNAAVEGYDISEACRAAAEAFKRVAEAAKRAGITSLETLLRAIEEIRKRVEEAQREGNDISEACRQAAEEFRKKAEELKRRGDVGGSGGTGGYPYDVPDYA | binds
CMV-1POK(E239Y)-Linker8-HA (other) MIDYTAAGFTLLQGAHLYAPEDRGICDVLVANGKIIAVASNIPSDIVPNCTVVDLSGQILCPGFIDQHVHLIGGGGEAGPTTRTPEVALSRLTEAGVTSVVGLLGTDSISRHPESLLAKTRALNEEGISAWMLTGAYHVPSRTITGSVEKDVAIIDRVIGVKCAISDHRSAAPDVYHLANMAAESRVGGLLGGKPGVTVFHMGDSKKALQPIYDLLENCDVPISKLLPTHVNRNVPLFYQALEFARKGGTIDITSSIDEPVAPAEGIARAVQAGIPLARVTLSSDGNGSQPFFDDEGNLTHIGVAGFETLLETVQVLVKDYDFSISDALRPLTSSVAGFLNLTGKGEILPGNDADLLVMTPELRIEQVYARGKLMVKDGKACVKGTFETAGGSGGTGGYPYDVPDYA | binds
UBC-1POK(E239Y)-Linker7-HA-Linker3-Top7 (other) MIDYTAAGFTLLQGAHLYAPEDRGICDVLVANGKIIAVASNIPSDIVPNCTVVDLSGQILCPGFIDQHVHLIGGGGEAGPTTRTPEVALSRLTEAGVTSVVGLLGTDSISRHPESLLAKTRALNEEGISAWMLTGAYHVPSRTITGSVEKDVAIIDRVIGVKCAISDHRSAAPDVYHLANMAAESRVGGLLGGKPGVTVFHMGDSKKALQPIYDLLENCDVPISKLLPTHVNRNVPLFYQALEFARKGGTIDITSSIDEPVAPAEGIARAVQAGIPLARVTLSSDGNGSQPFFDDEGNLTHIGVAGFETLLETVQVLVKDYDFSISDALRPLTSSVAGFLNLTGKGEILPGNDADLLVMTPELRIEQVYARGKLMVKDGKACVKGTFETAGGSGGTGYPYDVPDYAGSGDIQVQVNIDDNGKNFDYTYTVTTESELQKVLNELKDYIKKQGAKRVRISITARTKKEAEKFAAILIKVFAELGYNDINVTWDGDTVTVEGQLE | binds
